Measured values: patent US20240092884A1 (CHILDREN S HOSPITAL OF FUDAN UNIVERSITY, published 2024)

T1: human ANGPTL3 protein (SEQ ID No. 19) (human, UniProt Q9Y5C1 18-460, limits assumed)
T1 construct: also called ANGPTL3-FLD; protein (immunogen)
T1 sequence: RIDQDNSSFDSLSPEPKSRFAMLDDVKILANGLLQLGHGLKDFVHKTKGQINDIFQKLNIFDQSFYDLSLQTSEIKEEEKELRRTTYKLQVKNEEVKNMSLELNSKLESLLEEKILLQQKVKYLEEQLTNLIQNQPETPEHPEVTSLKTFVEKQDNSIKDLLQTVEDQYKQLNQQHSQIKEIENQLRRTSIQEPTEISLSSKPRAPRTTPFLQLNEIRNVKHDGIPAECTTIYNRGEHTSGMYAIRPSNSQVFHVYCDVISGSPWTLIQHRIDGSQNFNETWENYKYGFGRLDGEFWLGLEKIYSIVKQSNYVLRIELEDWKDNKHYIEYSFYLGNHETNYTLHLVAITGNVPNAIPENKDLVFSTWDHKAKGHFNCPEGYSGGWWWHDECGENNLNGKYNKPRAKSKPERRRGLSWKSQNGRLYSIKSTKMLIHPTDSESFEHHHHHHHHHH

B1: ANGPTL3-FLD-biotin (ligand)
chain: T1 sequence
modifications: biotin-labeled (sites not given)
notes: also called ANGPTL3-Biotin; Biotin-ANGPTL3-FLD
B2: anti-ANGPTL3 monoclonal antibody (prepared in Example 2) (antibody, IgG1, V domains shown)
VH: QVQLKESGPGLVAPSQSLSITCTVSGFSLTTYGVSWVRQPPGKGLEWLGVIWGDGNTNYHSALISRLSISKDNSKSQVFLKLNSLQTDDTATYYCAKGGPYGNYVPFDYWGQGTTLTVSS
VL: DIVLTQSPASLAVSLGQRATISCRASESVDSYGNSFMHWYQQKPGQPPKLLIYRASNLESGIPARFSGSGSRTDFTLTINPVEADDVATYYCQQSDEEPPTFGGGTNLEIK
notes: Recombinant antibody expressed transiently in ExpiCHO-S cells; also called anti-ANGPTL3-FLD mAb; mAb

Legend:
[1] = target: human ANGPTL3 protein (SEQ ID No. 19) (human) (UniProt Q9Y5C1); experiment: indirect ELISA, negative control supernatant, column A (taken as plate-coated ANGPTL3 of SEQ ID No. 19)
[2] = target: T2, Integrin αvβ3 recombinant protein (R&D, 3050-AV-050) (UniProt P06756 31-992; P05106 27-718); experiment: ELISA: integrin αvβ3 coated at 1 µg/mL, ANGPTL3-FLD-biotin titrated, detected with peroxidase-labeled streptavidin, OD450
T2 construct: Bought heterodimer
T2 sequence (P06756 31-992, chain 1 of 2): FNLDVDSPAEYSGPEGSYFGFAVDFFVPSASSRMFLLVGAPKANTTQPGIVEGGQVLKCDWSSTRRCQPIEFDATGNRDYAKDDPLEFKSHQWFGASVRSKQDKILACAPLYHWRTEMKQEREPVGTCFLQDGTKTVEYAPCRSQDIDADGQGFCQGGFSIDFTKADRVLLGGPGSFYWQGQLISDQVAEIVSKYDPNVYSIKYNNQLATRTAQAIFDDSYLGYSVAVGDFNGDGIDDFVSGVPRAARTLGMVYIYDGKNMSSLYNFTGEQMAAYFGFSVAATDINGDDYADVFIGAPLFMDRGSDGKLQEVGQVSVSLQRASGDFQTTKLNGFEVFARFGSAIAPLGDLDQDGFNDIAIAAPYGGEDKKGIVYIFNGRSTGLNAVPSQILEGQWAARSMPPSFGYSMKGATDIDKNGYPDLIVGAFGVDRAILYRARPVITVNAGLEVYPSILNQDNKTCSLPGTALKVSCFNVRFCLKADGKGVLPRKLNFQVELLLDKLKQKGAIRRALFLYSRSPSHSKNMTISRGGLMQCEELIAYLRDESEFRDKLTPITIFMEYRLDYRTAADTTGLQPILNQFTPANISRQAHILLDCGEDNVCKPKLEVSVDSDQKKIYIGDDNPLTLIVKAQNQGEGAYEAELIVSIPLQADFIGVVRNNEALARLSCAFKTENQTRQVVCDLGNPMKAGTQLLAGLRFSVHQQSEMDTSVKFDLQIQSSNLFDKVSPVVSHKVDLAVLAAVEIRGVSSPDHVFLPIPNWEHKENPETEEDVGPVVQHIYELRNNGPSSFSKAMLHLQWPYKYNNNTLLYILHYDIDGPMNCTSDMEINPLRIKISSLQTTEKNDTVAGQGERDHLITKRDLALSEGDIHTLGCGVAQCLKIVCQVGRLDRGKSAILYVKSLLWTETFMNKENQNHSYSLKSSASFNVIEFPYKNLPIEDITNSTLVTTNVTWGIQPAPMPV
T2 sequence (P05106 27-718, chain 2 of 2): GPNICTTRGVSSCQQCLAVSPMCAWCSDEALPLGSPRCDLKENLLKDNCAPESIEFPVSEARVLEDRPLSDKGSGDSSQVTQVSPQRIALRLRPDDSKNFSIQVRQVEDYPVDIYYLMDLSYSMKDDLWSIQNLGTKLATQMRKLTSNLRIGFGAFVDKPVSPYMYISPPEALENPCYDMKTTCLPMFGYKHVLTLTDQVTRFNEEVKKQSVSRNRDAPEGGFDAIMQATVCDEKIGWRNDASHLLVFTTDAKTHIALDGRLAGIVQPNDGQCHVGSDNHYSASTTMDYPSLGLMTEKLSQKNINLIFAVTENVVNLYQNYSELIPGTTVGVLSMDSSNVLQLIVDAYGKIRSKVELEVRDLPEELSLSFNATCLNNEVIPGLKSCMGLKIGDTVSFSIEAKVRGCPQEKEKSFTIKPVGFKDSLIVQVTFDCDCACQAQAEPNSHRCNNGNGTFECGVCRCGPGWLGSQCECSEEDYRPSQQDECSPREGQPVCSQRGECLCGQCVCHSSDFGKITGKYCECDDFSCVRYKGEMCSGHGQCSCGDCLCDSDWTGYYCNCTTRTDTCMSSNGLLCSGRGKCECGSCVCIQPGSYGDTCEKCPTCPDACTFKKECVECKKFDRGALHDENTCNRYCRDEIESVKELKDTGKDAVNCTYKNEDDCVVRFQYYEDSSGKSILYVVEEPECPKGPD
Description: (§1) Therefore, in order to evaluate the biological activity of the anti-ANGPTL3 monoclonal antibody, a competitive ELISA experiment was designed to evaluate the activity of the anti-ANGPTL3 monoclonal antibody blocking the interaction between ANGPTL3-FLD and integrin αvβ3. In the competitive experiment of the anti-ANGPTL3 monoclonal antibody blocking the interaction between ANGPTL3-FLD and integrin αvβ3, ANGPTL3-FLD was biotin-labeled, and the lowest saturated concentration of ANGPTL3-FLD-biotin binding to integrin αvβ3 was determined as 0.16 μg/mL by ELISA (as shown in FIG. 3A). The anti-ANGPTL3 monoclonal antibody was serially diluted with 0.16 μg/mL ANGPTL3-FLD-biotin solution as a diluent to obtain a series of concentrations. Theoretically, ANGPTL3-FLD-biotin can saturate integrin αvβ3 on a solid support in the absence of monoclonal antibody. However, when the epitope of ANGPTL3-FLD recognized by the monoclonal antibody overlaps with the epitope of ANGPTL3-FLD binding to integrin αvβ3, the antibody may compete with integrin αvβ3 for binding to ANGPTL3-FLD-biotin, so that ANGPTL3-FLD-biotin cannot bind to integrin αvβ3 on the solid support.
1. Plot a Curve of the Binding of Integrin αvβ3/ANGPTL3 [0093] […]

ANGPTL3-FLD-biotin = target: B1; experiment: competitive ELISA: antibody titrated in 0.16 µg/mL ANGPTL3-FLD-biotin, blocking its binding to plate-coated integrin αvβ3
Description: as §1, with “Integrin αvβ3 is a key receptor for ANGPTL3-FLD to act on podocytes and mediate podocyte damage. Therefore,” for “Therefore,”
2. Detect a Half-Maximal Inhibitory Concentration of Anti-ANGPTL3-FLD mAb [0098] […]

[3] = target: T1, human ANGPTL3 protein (SEQ ID No. 19); experiment: SPR, Biacore T200, ANGPTL3 amine-coupled on a CM5 chip (852 RU), antibody injected at 6.25-800 nM, 25 °C, HBS-EP
Method: Angptl3 was immobilized on a CM5 sensor chip (Biacore T200, BR18010468 (GE Healthercare)) at 25° C. with HBS-EP as a running buffer (10 mM HEPES, 150 mM NaCl, 3 mM EDTA, 0.05% P20, pH 7.4). Flow cells 1 and 4 were activated on the surface of the sensor chip with fresh and mixed NHS (50 mmol/L) and EDC (200 mmol/L) for 420 s (10 μL/min). Then, Angptl3 diluted in 10 mmol/L NaAC (pH 5.0) waccording tojected into the flow cell 4 to achieve binding of about 852 Response Unit. In addition, Fc1 was set to blank. After the amine coupling reaction, 1 mol/L ethanolamine hydrochloride (pH 8.5) waccording tojected for 420 s to block the remaining active coupling sites on the chip surface.
The detection was carried out at 25° C. with HBS-EP as a running buffer. The anti-ANGPTL3 monoclonal antibody (prepared in Example 2) waccording tojected onto the surfaces of flow cells 1, 2, 3, and 4 as an association stage, and then the running buffer waccording tojected as a dissociation stage.
All data were processed using Biacore T200 evaluation software version 3.1. The flow cell 1 was used as a double reference for the subtractive response unit. For the detection results of the affinity of the anti-ANGPTL3 antibody to the ANGPTL3 protein, refer to FIG. 2.

Work on Negative Control Supernatant yielded an OD 450 [1] of 0.195 OD450.

B1 was tested, and the “EC50 (read off the curve)” value [2] was ~0.01 µg/mL.

For B2, the EC50 (ANGPTL3-FLD-biotin) was 1.57 µg/mL, the Kd [3] was 84.8 nM and the koff [3] was 0.00142 s⁻¹. It also gave a kon [3] of 16700 M⁻¹ s⁻¹.
